Source: patent US10662413B2, “Recombinant DNA polymerase for improved incorporation of nucleotide analogues” (PERSONAL GENOMICS, INC., priority 2016, dated 2020)
Residue numbers refer to the chain shown, from its start. Names and notes keep the numbering of the source.

B1: D480R: 9° N-III mutant D480R, nucleotide binding pocket (protein)
chain: MILDTDYITENGKPVIRVFKKENGEFKIEYDRTFEPYFYALLKDDSAIEDVKKVTAKRHGTVVKVKRAEKVQKKFLGRPIEVWKLYFNHPQDVPAIRDRIRAHPAVVDIYEYDIPFAKRYLIDKGLIPMEGDEELTMLAFAIATLYHEGEEFGTGPILMISYADGSEARVITWKKIDLPYVDVVSTEKEMIKRFLRVVREKDPDVLITYNGDNFDFAYLKKRCEELGIKFTLGRDGSEPKIQRMGDRFAVEVKGRIHFDLYPVIRRTINLPTYTLEAVYEAVFGKPKEKVYAEEIAQAWESGEGLERVARYSMEDAKVTYELGREFFPMEAQLSRLIGQSLWDVSRSSTGNLVEWFLLRKAYKRNELAPNKPDERELARRRGGYAGGYVKEPERGLWDNIVYLDFRSSAVSIIITHNVSPDTLNREGCKEYDVAPEVGHKFCKDFPGFIPSLLGDLLEERQKIKRKMKATVDPLEKKLLRYRQRLIKILANSFYGYYGYAKARWYCKECAESVTAWGREYIEMVIRELEEKFGFKVLYADTDGLHATIPGADAETVKKKAKEFLKYINPKLPGLLELEYEGFYVRGFFVTKKKYAVIDEEGKITTRGLEIVRRDWSEIAKETQARVLEAILKHGDVEEAVRIVKEVTEKLSKYEVPPEKLVIHEQITRDLRDYKATGPHVAVAKRLAARGVKIRPGTVISYIVLKGSGRIGDRAIPADEFDPTKHRYDAEYYIENQVLPAVERILKAFGYRKEDLRYQKTKQVGLGAWLKVKGKK
B2: V410G: 9° N-III mutant V410G, nucleotide binding pocket (protein)
chain: B1 chain with V410G, R480D
B3: V282F: 9° N-III mutant V282F, nucleotide binding pocket (protein)
chain: B1 chain with V282F, R480D
B4: I486Y: 9° N-III mutant I486Y, nucleotide binding pocket (protein)
chain: B1 chain with R480D, I486Y
B5: D480I: 9° N-III mutant D480I, nucleotide binding pocket (protein)
chain: B1 chain with R480I
B6: D480A: 9° N-III mutant D480A, nucleotide binding pocket (protein)
chain: B1 chain with R480A
B7: I486P: 9° N-III mutant I486P, nucleotide binding pocket (protein)
chain: B1 chain with R480D, I486P
B8: D480M: 9° N-III mutant D480M, nucleotide binding pocket (protein)
chain: B1 chain with R480M
B9: I486F: 9° N-III mutant I486F, nucleotide binding pocket (protein)
chain: B1 chain with R480D, I486F
B10: D480H: KOD^exo− mutant D480H (protein)
chain: B1 chain with R480H
B11: L485F: 9° N-III mutant L485F, nucleotide binding pocket (protein)
chain: B1 chain with R480D, L485F
B12: I486W: 9° N-III mutant I486W, nucleotide binding pocket (protein)
chain: B1 chain with R480D, I486W
B13: D480P: 9° N-III mutant D480P, nucleotide binding pocket (protein)
chain: B1 chain with R480P
B14: D480N: KOD^exo− mutant D480N (protein)
chain: B1 chain with R480N
B15: D480G: 9° N-III mutant D480G, nucleotide binding pocket (protein)
chain: B1 chain with R480G
B16: I486R: 9° N-III mutant I486R, nucleotide binding pocket (protein)
chain: B1 chain with R480D, I486R
B17: K477F: 9° N-III mutant K477F, nucleotide binding pocket (protein)
chain: B1 chain with K477F, R480D
B18: I486A: 9° N-III mutant I486A, nucleotide binding pocket (protein)
chain: B1 chain with R480D, I486A
B19: D480W: KOD^exo− mutant D480W (protein)
chain: B1 chain with R480W
B20: V410P: 9° N-III mutant V410P, nucleotide binding pocket (protein)
chain: B1 chain with V410P, R480D
B21: KOD^exo−: KOD^exo− DNA polymerase with mutations at residues 141 and 143 (SEQ ID NO: 5) (protein)
chain: MILDTDYITEDGKPVIRIFKKENGEFKIEYDRTFEPYFYALLKDDSAIEEVKKITAERHGTVVTVKRVEKVQKKFLGRPVEVWKLYFTHPQDVPAIRDKIREHPAVIDIYEYDIPFAKRYLIDKGLVPMEGDEELKMLAFAIATLYHEGEEFAEGPILMISYADEEGARVITWKNVDLPYVDVVSTEREMIKRFLRVVKEKDPDVLITYNGDNFDFAYLKKRCEKLGINFALGRDGSEPKIQRMGDRFAVEVKGRIHFDLYPVIRRTINLPTYTLEAVYEAVFGQPKEKVYAEEITTAWETGENLERVARYSMEDAKVTYELGKEFLPMEAQLSRLIGQSLWDVSRSSTGNLVEWFLLRKAYERNELAPNKPDEKELARRRQSYEGGYVKEPERGLWENIVYLDFRSLYPSIIITHNVSPDTLNREGCKEYDVAPQVGHRFCKDFPGFIPSLLGDLLEERQKIKKKMKATIDPIERKLLDYRQRAIKILANSYYGYYGYARARWYCKECAESVTAWGREYITMTIKEIEEKYGFKVIYSDTDGFFATIPGADAETVKKKAMEFLKYINAKLPGALELEYEGFYKRGFFVTKKKYAVIDEEGKITTRGLEIVRRDWSEIAKETQARVLEALLKDGDVEKAVRIVKEVTEKLSKYEVPPEKLVIHEQITRDLKDYKATGPHVAVAKRLAARGVKIRPGTVISYIVLKGSGRIGDRAIPFDEFDPTKHKYDAEYYIENQVLPAVERILRAFGYRKEDLRYQKTRQVGLSAWLKPKGT
modifications: Thermococcus kodakarensis kod1; KODexo- DNA polymerase

Legend:
[1] = target: T1, Bst-Lg (Bst Large fragment DNA polymerase) (Geobacillus stearothermophilus, UniProt P52026); assay: Polymerase end point (PEP) assay; format: biochemical; settings: read-out: Average IC50 ± SD
T1 construct: Bst Large fragment DNA polymerase; purchased New England Biolabs
T1 sequence (P52026 289-876 limits assumed): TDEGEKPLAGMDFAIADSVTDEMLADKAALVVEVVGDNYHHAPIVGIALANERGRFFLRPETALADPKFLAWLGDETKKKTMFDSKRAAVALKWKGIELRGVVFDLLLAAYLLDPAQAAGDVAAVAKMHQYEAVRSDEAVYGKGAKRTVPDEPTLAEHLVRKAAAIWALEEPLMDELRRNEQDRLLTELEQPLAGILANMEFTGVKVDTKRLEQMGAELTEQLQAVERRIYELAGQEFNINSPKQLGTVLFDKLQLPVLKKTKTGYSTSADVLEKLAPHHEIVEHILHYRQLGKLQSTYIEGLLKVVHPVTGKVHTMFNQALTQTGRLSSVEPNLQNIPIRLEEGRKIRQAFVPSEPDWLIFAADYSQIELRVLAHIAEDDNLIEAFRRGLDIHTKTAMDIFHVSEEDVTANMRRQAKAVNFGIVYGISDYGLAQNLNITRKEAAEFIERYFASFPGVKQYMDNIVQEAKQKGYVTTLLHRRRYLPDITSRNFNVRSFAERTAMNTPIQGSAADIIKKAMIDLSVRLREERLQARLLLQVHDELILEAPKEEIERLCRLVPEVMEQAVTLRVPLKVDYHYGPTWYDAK
Protocol: (§1) Accordingly, the end-point concentration, IC50 value, of the respective nucleotide was calculated.

[2] = target: THN (Therminator); assay: Polymerase end point (PEP) assay; format: biochemical; settings: read-out: Average IC50 ± SD
Protocol: as §1

[3] = target: T2, Klenow (exo-) fragment DNA polymerase (Escherichia coli, UniProt P00582, D355A/E357A); format: biochemical; settings: PEP assay, read-out: Average IC50 ± SD
T2 construct: Klenow (exo-) fragment DNA polymerase; purchased New England Biolabs
Protocol: as §1

[4] = target: T3, 9°N-III DNA polymerase (Thermococcus sp., UniProt Q56366, A485L/D141A/E143A/L408S/P410V/Y409A); format: biochemical, Thermococcus sp. 9° N-7 strain; settings: PEP assay, read-out: Average IC50 ± SD
T3 construct: 6x histidine tag (C); made in house; host or cells: E. coli BL21
Protocol: as §1

[5] = target: T4, 9°N-I DNA polymerase (Thermococcus sp., UniProt Q56366, A485L/D141A/E143A); assay: Pre-steady state kinetic assay; format: biochemical, Thermococcus sp. 9° N-7 strain; settings: 30° C.
T4 construct: made in house; host or cells: E. coli BL21
Protocol: The rate of incorporation of the correct base onto the 25/36 mer duplex was determined in a reaction. The reaction was initiated by combining the solution containing the enzyme and DNA substrate with the second solution containing Mg^2+/dNTP. The reaction was quenched with 0.25 M EDTA (final concentration), pH 8.0. A rapid quench instrument (KinTek Instrument Corp., State College, Pa.) was used for reaction times ranging from 20 ms to 20 s.

[6] = system: 5′Q-3′-Ga
[7] = system: 5′Q-3′-Ga; format: biochemical; settings: KOD^exo− background

Row | Molecule | conversion rate (C.R.) of extension product [6] | other results
1 | Nc1ncnc2c1ncn2[C@H]1C[C@H](O)[C@@H](COP(=O)(O)OP(=O)(O)OP(=O)(O)O)O1 [dATP] |  | IC50 [1]: 2.54 ± 0.067 nM; IC50 [2]: 0.526 ± 0.008 nM; IC50 [3]: 0.589 ± 0.008 nM; IC50 [4]: 14 ± 0.6 nM; Kd [5]: 8 µM; kpol [5]: 132.4 s⁻¹; kpol/Kd [5]: 16.55 µM⁻¹ s⁻¹
2 | B1 | 83% | 
3 | B2 | 69% | 
4 | B3 | 66% | 
5 | B4 | 82% | 
6 | B5 | 82% | 
7 | B6 | 81% | 
8 | B7 | 100% | 
9 | B8 | 80% | 
10 | B9 | 81% | 
11 | B10 |  | conversion of 5′Q-3′-Ga [7]: 84%
12 | B11 | 74% | 
13 | B12 | 81% | 
14 | B13 | 82% | 
15 | B14 |  | conversion of 5′Q-3′-Ga [7]: 83%
16 | B15 | 80% | 
17 | B16 | 87% | 
18 | B17 | 82% | 
19 | B18 | 82% | 
20 | B19 |  | conversion of 5′Q-3′-Ga [7]: 77%
21 | B20 | 78% | 
22 | B21 |  | conversion of 5′Q-3′-Ga [7]: 37%
